In PMC11108873, “Emergence of a clinical Salmonella enterica serovar 1,4,[5], 12: i:-isolate, ST3606, in China with susceptibility decrease to ceftazidime-avibactam carrying a novel blaCTX-M-261 variant and a blaNDM-5” (European Journal of Clinical Microbiology & Infectious …, 2024):

Experiments:
Test in all cases: purified protein
Settings in all cases: 50 mM sodium phosphate pH 7.0, 30 °C, BSA added to enzyme dilution
[1] = test system: CC(C)(O/N=C(\C(=O)N[C@@H]1C(=O)N2C(C(=O)[O-])=C(C[n+]3ccccc3)CS[C@H]12)c1csc(N)n1)C(=O)O
[2] = test system: CO/N=C(\C(=O)N[C@@H]1C(=O)N2C(C(=O)O)=C(COC(C)=O)CS[C@H]12)c1csc(N)n1
[3] = test system: CO/N=C(\C(=O)N[C@@H]1C(=O)N2C(C(=O)O)=C(CSc3nc(=O)c(=O)[nH]n3C)CS[C@H]12)c1csc(N)n1
[4] = test system: CO/N=C(\C(=O)N[C@@H]1C(=O)N2C(C(=O)[O-])=C(C[N+]3(C)CCCC3)CS[C@H]12)c1csc(N)n1

In the case of CTX-M-1 (Escherichia coli), the Km [1] is reported as 328.8 ± 42 µM, the kcat [1] is reported as 43.6 ± 3.7 s⁻¹ and the kcat/Km [1] is reported as 130000 M⁻¹ s⁻¹. It also gave a Km [2] of 17.8 ± 2.5 µM, a kcat [2] of 111 ± 25 s⁻¹ and a kcat/Km [2] of 6.2e+06 M⁻¹ s⁻¹. The Km [3] was 10.5 ± 1.8 µM, the kcat [3] was 105 ± 4.3 s⁻¹ and the kcat/Km [3] was 9.98e+06 M⁻¹ s⁻¹. It also gave a Km [4] of 146 ± 21.3 µM, a kcat [4] of 27.9 ± 8.6 s⁻¹ and a kcat/Km [4] of 190000 M⁻¹ s⁻¹.
